Source: paper PMC6411775
Several values for one entry are separate records, joined by “and”; a condition that tells them apart may be missing. Equal entries are not always repeated.

Biological target: full length human histone 3 lysine 4 demethylase KDM5B, His6 tag cleaved (human) (UniProt Q9UGL1)
Test: SPR; KDM5B immobilised by amine coupling (490 RU and 975 RU); NCPs injected in eight concentrations (two-fold dilutions from 250 nM); 15 °C; 20 mM Hepes, 300 mM NaCl, 1 mM EDTA, 0.005% Tween 20, 1 mM DTT; steady state, 1:1 model; apparent

Sequence of UniProt Q9UGL1 (Q9UGL1 whole entry): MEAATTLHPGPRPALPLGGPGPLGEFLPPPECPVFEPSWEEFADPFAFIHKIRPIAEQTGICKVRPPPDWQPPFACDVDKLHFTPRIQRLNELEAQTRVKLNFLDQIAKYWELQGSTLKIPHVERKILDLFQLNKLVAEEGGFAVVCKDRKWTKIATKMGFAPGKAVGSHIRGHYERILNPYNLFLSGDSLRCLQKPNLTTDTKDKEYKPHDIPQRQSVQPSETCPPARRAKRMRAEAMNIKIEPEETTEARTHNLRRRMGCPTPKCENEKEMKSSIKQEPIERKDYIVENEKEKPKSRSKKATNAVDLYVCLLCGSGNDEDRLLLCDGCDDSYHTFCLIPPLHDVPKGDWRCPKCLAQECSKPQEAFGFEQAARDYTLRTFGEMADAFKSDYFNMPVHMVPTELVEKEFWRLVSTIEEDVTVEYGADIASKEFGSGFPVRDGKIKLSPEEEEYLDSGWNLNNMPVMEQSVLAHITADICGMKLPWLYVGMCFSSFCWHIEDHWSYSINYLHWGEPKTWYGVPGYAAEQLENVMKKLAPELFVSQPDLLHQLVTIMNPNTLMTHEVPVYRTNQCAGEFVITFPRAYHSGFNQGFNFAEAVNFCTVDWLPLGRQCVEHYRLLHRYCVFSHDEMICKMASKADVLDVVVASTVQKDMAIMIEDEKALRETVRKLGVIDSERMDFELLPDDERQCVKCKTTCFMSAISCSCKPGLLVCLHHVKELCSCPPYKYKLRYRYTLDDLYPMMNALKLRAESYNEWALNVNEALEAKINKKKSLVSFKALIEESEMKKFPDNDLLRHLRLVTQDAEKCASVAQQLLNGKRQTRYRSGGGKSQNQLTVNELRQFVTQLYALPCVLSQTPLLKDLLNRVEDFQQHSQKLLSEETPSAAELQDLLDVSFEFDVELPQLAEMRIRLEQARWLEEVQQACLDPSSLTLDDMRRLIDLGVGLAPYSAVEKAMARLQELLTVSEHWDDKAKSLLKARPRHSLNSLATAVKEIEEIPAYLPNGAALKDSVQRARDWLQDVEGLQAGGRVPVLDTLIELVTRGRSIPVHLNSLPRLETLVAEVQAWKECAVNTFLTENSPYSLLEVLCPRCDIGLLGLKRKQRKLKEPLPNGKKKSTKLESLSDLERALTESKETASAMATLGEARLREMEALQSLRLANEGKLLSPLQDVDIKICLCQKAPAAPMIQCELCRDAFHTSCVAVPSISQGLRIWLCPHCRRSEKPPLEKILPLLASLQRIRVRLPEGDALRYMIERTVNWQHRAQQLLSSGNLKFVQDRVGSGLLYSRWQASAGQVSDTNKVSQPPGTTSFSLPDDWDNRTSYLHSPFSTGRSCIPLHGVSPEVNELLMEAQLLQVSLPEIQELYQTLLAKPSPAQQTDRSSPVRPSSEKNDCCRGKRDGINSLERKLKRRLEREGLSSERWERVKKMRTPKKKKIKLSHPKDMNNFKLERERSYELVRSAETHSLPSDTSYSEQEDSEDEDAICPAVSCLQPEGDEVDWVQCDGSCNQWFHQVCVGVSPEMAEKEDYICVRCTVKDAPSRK

Substance: Nucleosome core particles (NCPs), recombinant Xenopus laevis histone octamer on the Widom 601 DNA (complex)
- Kd: 20.3 nM and 27.7 nM
